The Kd is the equilibrium constant for the complex coming apart. A lower Kd goes with a tighter complex.

These results are taken from US20080267949A1, “Peptides capable of binding to serum proteins” (Ablynx N.V., priority 2006, published 2008).

The target in data set [1] is T1, rhErbB2-Fc antigen (Homo sapiens, UniProt P04626).
T1 construct: purchased R&D Systems
As to the kind of experiment: Surface plasmon resonance: simultaneous binding to HER2 and HSA, chip coated with rhErbB2-Fc. As to conditions: pre-incubated with HSA (1 and 5 μM); ~3000 RU rhErbB2-Fc. How it is done: FIG. 11: Surface plasmon resonance analysis of simultaneous binding of 2D3-17D12 fusion protein to HER2 antigen and human serum albumin (HSA). 2D3-17D12 fusion protein was pre-incubated or not with 1 and 5 μM HSA, followed by flow over immobilized 2D3 target antigen, rhErbB2-Fc. The dotted line represents the binding characteristics of 2D3 in presence of 25 μM HSA.
To examine whether the 2D3 Nanobody and the 17D12 CDR3 can simultaneously bind their respective target antigen (Her-2 antigen for 2D3 Nanobody, albumin for 17D12 CDR3), the following experiment was performed. 2D3-17D12 fusion protein was pre-incubated or not with increasing concentration of HSA and then injected on a CM5 chip coated with rhErbB2-Fc antigen (R&D Systems) at a density of ˜3000 RU.
Background: In SPR one partner is held on a chip, and binding of the other changes the refractive index at the surface.

The target of data set [2] is T2, human serum albumin (HSA) (Homo sapiens, UniProt P02768).
T2 construct: purchased Sigma A5763
Type of data set: binding. The method, then: FIG. 10: Surface plasmon resonance analysis of the binding of Nanobody® (2D3) and Nanobody® fusion peptide (2D3-17D12) on human serum albumin (HSA). Coating of the chip (CM5) was performed by amine coupling using NHS/EDC for activation and ethanolamine for deactivation (Biacore amine coupling kit). hip coated with 7000 RU human serum albumin (Sigma, 99% pure) and 2500 RU irrelevant protein antigen. 2D3 and 2D3-17D12 was successively injected over the chip in increasing concentrations (1.25 μM, 2.5 μM and 5 μM). HBS-EP was used as flow buffer at a rate of 10 μl min-1.20 μl of sample was injected for 20 s.
The 2D3-17D12 fusion protein […] […] […] (SEQ ID NO: 30) was expressed in E. coli TG1 cells. The fusion protein was purified by IMAC/SEC and binding to HSA was assessed in BIAcore™ 3000. Therefore, a dilution series of 2D3-17D12 fusion protein and 2D3 Nanobody was injected on a CM5 chip coated with high density HSA (7000RU). […] Calculated affinity of 2D3-17D12 for HSA is ˜10 μM.

For data set [3], the system named is irrelevant protein. As to the kind of experiment: Surface plasmon resonance control on CM5 chip coated with irrelevant protein. Type of data set: binding. As to conditions: 2.5 μM injected; 2400 RU irrelevant protein.

B1: 2D3-17D12: fusion of HER2-binding VHH 2D3 with HSA-binding peptide 17D12, expressed in E. coli TG1 (protein)
chain: EVQLVESGGSLVQPGGSLRLSCAASGFTFDDYAMSWVRQVPGKGLEWVSSINWSGTHTDYADSVKGRFTISRNNANNTLYLQMNSLKSEDTAVYYCAKNWRDAGTTWFEKSGSAGQGTQVTVSSDTAVYYCNAAASYSDYDVFGGGTDFGPWGQGTQVGGGS
modifications: 2D3-17D12 fusion protein
Consider B1, for which, in data set [1], the “Off-rates on rhErbB2-Fc, premixed with HSA compared to control injection” value is recorded as “slightly higher but comparable off-rates”. This molecule also registered a dissociation constant (Kd) in data set [2] of approximately 10 µM. Moreover, the “Binding to HSA (SPR)” value in data set [2] (7000 RU HSA, injected at 1.25, 2.5 and 5 μM) is listed as “dose-dependent binding”. In addition, the “Binding to irrelevant protein (SPR control)” value in data set [3] is “no specific binding was detected”.
